Measurements as given in article PMC3297495, “A rice transient assay system identifies a novel domain in NRR required for interaction with NH1/OsNPR1 and inhibition of NH1-mediated transcriptional activation” (Plant Methods, 2012).

Legend:
Gal4:rLG2 = Gal4:rLG2 (rice (Oryza sativa L)); test: cell-based or functional assay
Gal4:rTGA2.1 = Gal4:rTGA2.1 (rice (Oryza sativa L)); test: cell-based or functional assay

UAS-Luc reporter (Luc/Gus) in rice protoplasts: Gal4:rLG2 with untagged NH1 (Ubi-NH1) against Gal4:rLG2 alone (Figure 1) (Gal4:rLG2): ~2 fold | UAS-Luc reporter (Luc/Gus) in rice protoplasts: Gal4:rLG2 with untagged NH1 (Ubi-NH1) against Gal4:rLG2 alone (Figure 4A) (Gal4:rLG2): ~3 fold | UAS-Luc reporter (Luc/Gus) in rice protoplasts: Gal4:rTGA2.1 with untagged NH1 (Ubi-NH1) against Gal4:rTGA2.1 alone (Gal4:rTGA2.1): ~2 fold
B1: YN:NH1 (natural protein, rice (Oryza sativa L), UniProt Q9FDY4 1-582, looked up)
chain: MEPPTSHVTNAFSDSDSASVEEGGADADADVEALRRLSDNLAAAFRSPEDFAFLADARIAVPGGGGGGGDLLVHRCVLSARSPFLRGVFARRAAAAAGGGGEDGGERLELRELLGGGGEEVEVGYEALRLVLDYLYSGRVGDLPKAACLCVDEDCAHVGCHPAVAFMAQVLFAASTFQVAELTNLFQRRLLDVLDKVEVDNLLLILSVANLCNKSCMKLLERCLDMVVRSNLDMITLEKSLPPDVIKQIIDARLSLGLISPENKGFPNKHVRRIHRALDSDDVELVRMLLTEGQTNLDDAFALHYAVEHCDSKITTELLDLALADVNHRNPRGYTVLHIAARRREPKIIVSLLTKGARPADVTFDGRKAVQISKRLTKQGDYFGVTEEGKPSPKDRLCIEILEQAERRDPQLGEASVSLAMAGESLRGRLLYLENRVALARIMFPMEARVAMDIAQVDGTLEFNLGSGANPPPERQRTTVDLNESPFIMKEEHLARMTALSKTVELGKRFFPRCSNVLDKIMDDETDPVSLGRDTSAEKRKRFHDLQDVLQKAFHEDKEENDRSGLSSSSSSTSIGAIRPRR
